The text below walks through data of patent US6045793, “Recombinant ribonuclease proteins” (dated 2000).

What all share (assay): cell-based or functional assay
One test concerns the target T1, Native ONCONASE (Rana pipiens, pyroglutamyl amino acid residue (<Glu-1) at the amino terminus).
T1 chain: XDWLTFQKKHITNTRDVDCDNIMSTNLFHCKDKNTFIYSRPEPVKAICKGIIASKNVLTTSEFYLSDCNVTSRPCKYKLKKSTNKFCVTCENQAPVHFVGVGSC

Test [1] concerns the target T2, recombinant human eosinophil-derived neurotoxin (human).
T2 chain: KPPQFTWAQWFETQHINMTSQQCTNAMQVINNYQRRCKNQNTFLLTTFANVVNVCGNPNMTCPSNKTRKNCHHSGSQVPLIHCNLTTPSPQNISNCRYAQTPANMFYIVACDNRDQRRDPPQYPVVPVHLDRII

A further test addresses T3, [Met-(-1)]rOnc (Rana pipiens).
T3 chain: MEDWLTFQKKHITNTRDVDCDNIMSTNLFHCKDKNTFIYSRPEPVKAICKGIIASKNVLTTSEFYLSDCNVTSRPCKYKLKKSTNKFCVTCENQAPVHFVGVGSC

In another test the target is T4, rEDN(1-21) rOnc (human; Rana pipiens).
T4 chain: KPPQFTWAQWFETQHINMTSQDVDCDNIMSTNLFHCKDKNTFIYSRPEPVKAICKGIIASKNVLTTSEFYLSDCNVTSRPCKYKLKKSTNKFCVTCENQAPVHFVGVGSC

Another test deals with T5, rEDN(1-21) rOncG26 (human EDN part, Rana pipiens Onc part).
T5 chain: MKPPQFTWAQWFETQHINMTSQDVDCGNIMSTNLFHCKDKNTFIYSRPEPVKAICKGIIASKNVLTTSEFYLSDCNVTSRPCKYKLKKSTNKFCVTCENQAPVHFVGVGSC

Test [2] addresses transferrin receptor on SF539 human glioma cells (human, UniProt P02786).

B1: Placental ribonuclease inhibitor (other)
chain: SLDIQSLDIQCEELSDARWAELLPLLQQCQVVRLDDCGLTEARCKDISSALRVNPALAELNLRSNELGDVGVHCVLQGLQTPSCKIQKLSLQNCCLTGAGCGVLSSTLRTLPTLQELHLSDNLLGDAGLQLLCEGLLDPQCRLEKLQLEYCSLSAASCEPLASVLRAKPDFKELTVSNNDINEAGVRVLCQGLKDSPCQLEALKLESCGVTSDNCRDLCGIVASKASLRELALGSNKLGDVGMAELCPGLLHPSSRLRTLWIWECGITAKGCGDLCRVLRAKESLKELSLAGNELGDEGARLLCETLLEPGCQLESLWVKSCSFTAACCSHFSSVLAQNRFLLELQISNNRLEDAGVRELCQGLGQPGSVLRVLWLADCDVSDSSCSSLAATLLANHSLRELDLSNNCLGDAGILQLVESVRQPGCLLEQLVLYDIYWSEEMEDRLQALEKDKPSLRVIS
Consider B1, for which the “Fold Difference of IC50 (ng/ml) in rabbit reticulocyte lysate, (+)PRI against (-)PRI” value with Native ONCONASE is 1.2 fold; in test [1], above 30.7 fold; in test [Met-(-1)]rOnc it was 1.4 fold; with rEDN(1-21) rOnc, 2 fold; with rEDN(1-21) rOncG26, 21 fold. Besides, the “IC50 (ng/ml) of the RNase for inhibition of protein synthesis in rabbit reticulocyte lysate, (+)PRI” value in the test with Native ONCONASE turned out to be 0.24 ng/mL; in test [Met-(-1)]rOnc, 140 ng/mL; in the test with rEDN(1-21) rOnc it was 3200 ng/mL; with rEDN(1-21) rOncG26, 600 ng/mL.

B2: E6FB[Met-(-1)Ser]rOnc (scFv)
chain: DIKMTQSPSSMYASLGERVTFTCKASQDINNYLCWFQQKPGKSPKTLIYRANRLVDGVPSRFSGSGSGQDYSLTISSLEYEDMGIYYCLQYDEFPYTFGGGTKLEIKGGGGSGGGGSGGGGSEVQLQQSGTVLARPGASVKMSCKASGYTFSSYWMHWIKQRPGQGLDWIVAIDPRNSDTIYNPQFKHKAKLTAVTSTSTAYMELNSLTNEDSAVYYCTPLYYFDSWGQGTTLTVSSAKKLNDAQAPKSDMSDWLTFQKKHITNTRDVDCDNIMSTNLFHCKDKNTFIYSRPEPVKAICKGIIASKNVLTTSEFYLSDCNVTSRPCKYKLKKSTNKFCVTCENQAPVHFVGVGSC
On to B2, for which, in test [2], the “IC50 (nM), inhibition of protein synthesis in SF539 human glioma cells” value amounted to 0.22 nM.

B3: [Met-(-1)Glu]rOncFBE6 (scFv)
chain: MEDWLTFQKKHITNTRDVDCDNIMSTNLFHCKDKNTFIYSRPEPVKAICKGIIASKNVLTTSEFYLSDCNVTSRPCKYKLKKSTNKFCVTCENQAPVHFVGVGSCAKKLNDAQAPKSDDIKMTQSPSSMYASLGERVTFTCKASQDINNYLCWFQQKPGKSPKTLIYRANRLVDGVPSRFSGSGSGQDYSLTISSLEYEDMGIYYCLQYDEFPYTFGGGTKLEIKGGGGSGGGGSGGGGSEVQLQQSGTVLARPGASVKMSCKASGYTFSSYWMHWIKQRPGQGLDWIVAIDPRNSDTIYNPQFKHKAKLTAVTSTSTAYMELNSLTNEDSAVYYCTPLYYFDSWGQGTTLTVSSHHH
As for B3, the “IC50 (nM), inhibition of protein synthesis in SF539 human glioma cells” value in test [2] worked out at 0.5 nM.
